In the supplement of paper PMC5998384:

How the values were obtained:
HeLa Kyoto [1] = assay: solubility in G1/S (NP-40 vs SDS abundance) (log2 ratio); higher = more soluble; details: cell cycle stage: G1/S
HeLa Kyoto [2] = assay: solubility change mitosis vs G1/S (difference of NP-40 vs SDS log2 ratios) (log2 ratio difference); higher = more soluble in mitosis
HeLa Kyoto [3] = assay: thermal stability score vs G1/S (z-score of summed log2 fold changes over temperatures); higher = more thermally stable than in G1/S
HeLa Kyoto [4] = assay: melting temperature (median over replicates), in situ; higher = more thermally stable
[5] = cell cycle stage: early G1 (4.5 h after nocodazole release)
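For melting temperature (median over replicates), in situ in this document: HeLa Kyoto cells synchronized by double thymidine or nocodazole block, proteins quantified by TMT10plex mass spectrometry, three independent biological replicates.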
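For solubility change mitosis vs G1/S (difference of NP-40 vs SDS log2 ratios) in this document: synchronized HeLa Kyoto cells (double thymidine block for G1/S, nocodazole release for mitosis), protein amounts in NP-40 versus SDS lysates quantified by mass spectrometry, three biological replicates.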
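For solubility in G1/S (NP-40 vs SDS abundance) in this document: HeLa Kyoto cells arrested at G1/S by double thymidine block, proteins quantified by TMT10plex mass spectrometry in mild NP-40 versus SDS extracts, three biological replicates.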
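For thermal stability score vs G1/S (z-score of summed log2 fold changes over temperatures) in this document: synchronized HeLa Kyoto cells, proteins quantified by TMT10plex mass spectrometry, three biological replicates, mitosis taken 0.5 h after nocodazole release, G1/S directly after double thymidine block.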

Sequence	solubility in G1/S (log2) (HeLa Kyoto [1])	solubility change mitosis (log2) (HeLa Kyoto [2])	thermal stability score (HeLa Kyoto [3]; [5])	thermal stability score (HeLa Kyoto [3]; cell cycle stage: mitosis)	melting temperature (HeLa Kyoto [4]; cell cycle stage: G1/S) [°C]	melting temperature (HeLa Kyoto [4]; cell cycle stage: mitosis) [°C]
MDRMASSMKQVPNPLPKVLSRRGVGAGLEAAERESFERTQTVSINKAINTQEVAVKEKHARTCILGTHHEKGAQTFWSVVNRLPLSSNAVLCWKFCHVFHKLLRDGHPNVLKDSLRYRNELSDMSRMWGHLSEGYGQLCSIYLKLLRTKMEYHTKNPRFPGNLQMSDRQLDEAGESDVNNFFQLTVEMFDYLECELNLFQTVFNSLDMSRSVSVTAAGQCRLAPLIQVILDCSHLYDYTVKLLFKLHSCLPADTLQGHRDRFMEQFTKLKDLFYRSSNLQYFKRLIQIPQLPENPPNFLRASALSEHISPVVVIPAEASSPDSEPVLEKDDLMDMDASQQNLFDNKFDDIFGSSFSSDPFNFNSQNGVNKDEKDHLIERLYREISGLKAQLENMKTESQRVVLQLKGHVSELEADLAEQQHLRQQAADDCEFLRAELDELRRQREDTEKAQRSLSEIERKAQANEQRYSKLKEKYSELVQNHADLLRKNAEVTKQVSMARQAQVDLEREKKELEDSLERISDQGQRKTQEQLEVLESLKQELATSQRELQVLQGSLETSAQSEANWAAEFAELEKERDSLVSGAAHREEELSALRKELQDTQLKLASTEESMCQLAKDQRKMLLVGSRKAAEQVIQDALNQLEEPPLISCAGSADHLLSTVTSISSCIEQLEKSWSQYLACPEDISGLLHSITLLAHLTSDAIAHGATTCLRAPPEPADSLTEACKQYGRETLAYLASLEEEGSLENADSTAMRNCLSKIKAIGEELLPRGLDIKQEELGDLVDKEMAATSAAIETATARIEEMLSKSRAGDTGVKLEVNERILGCCTSLMQAIQVLIVASKDLQREIVESGRGTASPKEFYAKNSRWTEGLISASKAVGWGATVMVDAADLVVQGRGKFEELMVCSHEIAASTAQLVAASKVKADKDSPNLAQLQQASRGVNQATAGVVASTISGKSQIEETDNMDFSSMTLTQIKRQEMDSQVRVLELENELQKERQKLGELRKKHYELAGVAEGWEEGTEASPPTLQEVVTEKE [HIP1]	0.0989	0.0765	0.173	1.11	49.9	50.2
MDRSAEFRKWKAQCLSKADLSRKGSVDEDVVELVQFLNMRDQFFTTSSCAGRILLLDRGINGFEVQKQNCCWLLVTHKLCVKDDVIVALKKANGDATLKFEPFVLHVQCRQLQDAQILHSMAIDSGFRNSGITVGKRGKTMLAVRSTHGLEVPLSHKGKLMVTEEYIDFLLNVANQKMEENKKRIERFYNCLQHALERETMTNLHPKIKEKNNSSYIHKKKRNPEKTRAQCITKESDEELENDDDDDLGINVTIFPEDY [TYW3]	0.102	-0.194	-0.67	-1.25	55	54.9
MDRSSKRRQVKPLAASLLEALDYDSSDDSDFKVGDASDSEGSGNGSEDASKDSGEGSCSDSEENILEEELNEDIKVKEEQLKNSAEEEVLSSEKQLIKMEKKEEEENGERPRKKKEKEKEKEKEKEKEKEREKEKEKATVSENVAASAAATTPATSPPAVNTSPSVPTTTTATEEQVSEPKKWNLRRNRPLLDFVSMEELNDMDDYDSEDDNDWRPTVVKRKGRSASQKEGSDGDNEDDEDEGSGSDEDENDEGNDEDHSSPASEGGCKKKKSKVLSRNSADDEELTNDSLTLSQSKSNEDSLILEKSQNWSSQKMDHILICCVCLGDNSEDADEIIQCDNCGITVHEGCYGVDGESDSIMSSASENSTEPWFCDACKCGVSPSCELCPNQDGIFKETDAGRWVHIVCALYVPGVAFGDIDKLRPVTLTEMNYSKYGAKECSFCEDPRFARTGVCISCDAGMCRAYFHVTCAQKEGLLSEAAAEEDIADPFFAYCKQHADRLDRKWKRKNYLALQSYCKMSLQEREKQLSPEAQARINARLQQYRAKAELARSTRPQAWVPREKLPRPLTSSASAIRKLMRKAELMGISTDIFPVDNSDTSSSVDGRRKHKQPALTADFVNYYFERNMRMIQIQENMAEQKNIKDKLENEQEKLHVEYNKLCESLEELQNLNGKLRSEGQGIWALLGRITGQKLNIPAILRAPKERKPSKKEGGTQKTSTLPAVLYSCGICKKNHDQHLLLLCDTCKLHYHLGCLDPPLTRMPRKTKNSYWQCSECDQAGSSDMEADMAMETLPDGTKRSRRQIKEPVKFVPQDVPPEPKKIPIRNTRTRGRKRSFVPEEEKHEERVPRERRQRQSVLQKKPKAEDLRTECATCKGTGDNENLVRCDECRLCYHFGCLDPPLKKSPKQTGYGWICQECDSSSSKEDENEAERKNISQELNMEQKNPKK [PHF14]	-1.13	0.708	-0.0393	2.42		50.1
MDRVTRYPILGIPQAHRGTGLVLDGDTSYTYHLVCMGPEASGWGQDEPQTWPTDHRAQQGVQRQGVSYSVHAYTGQPSPRGLHSENREDEGWQVYRLGARDAHQGRPTWALRPEDGEDKEMKTYRLDAGDADPRRLCDLERERWAVIQGQAVRKSSTVATLQGTPDHGDPRTPGPPRSTPLEENVVDREQIDFLAARQQFLSLEQANKGAPHSSPARGTPAGTTPGASQAPKAFNKPHLANGHVVPIKPQVKGVVREENKVRAVPTWASVQVVDDPGSLASVESPGTPKETPIEREIRLAQEREADLREQRGLRQATDHQELVEIPTRPLLTKLSLITAPRRERGRPSLYVQRDIVQETQREEDHRREGLHVGRASTPDWVSEGPQPGLRRALSSDSILSPAPDARAADPAPEVRKVNRIPPDAYQPYLSPGTPQLEFSAFGAFGKPSSLSTAEAKAATSPKATMSPRHLSESSGKPLSTKQEASKPPRGCPQANRGVVRWEYFRLRPLRFRAPDEPQQAQVPHVWGWEVAGAPALRLQKSQSSDLLERERESVLRREQEVAEERRNALFPEVFSPTPDENSDQNSRSSSQASGITGSYSVSESPFFSPIHLHSNVAWTVEDPVDSAPPGQRKKEQWYAGINPSDGINSEVLEAIRVTRHKNAMAERWESRIYASEEDD [MISP]	-2.09	1.38	-1.21	-1.86		51.9
MDSDDEMVEEAVEGHLDDDGLPHGFCTVTYSSTDRFEGNFVHGEKNGRGKFFFFDGSTLEGYYVDDALQGQGVYTYEDGGVLQGTYVDGELNGPAQEYDTDGRLIFKGQYKDNIRHGVCWIYYPDGGSLVGEVNEDGEMTGEKIAYVYPDERTALYGKFIDGEMIEGKLATLMSTEEGRPHFELMPGNSVYHFDKSTSSCISTNALLPDPYESERVYVAESLISSAGEGLFSKVAVGPNTVMSFYNGVRITHQEVDSRDWALNGNTLSLDEETVIDVPEPYNHVSKYCASLGHKANHSFTPNCIYDMFVHPRFGPIKCIRTLRAVEADEELTVAYGYDHSPPGKSGPEAPEWYQVELKAFQATQQK [SETD7]	-0.127	-0.119	1.42	2.54	48.7	50.5
